Results reported in patent US20140087995A1 (published 2014).
Numbered stars: 1 amine (or outer) side, 2 acyl side, 3 side chain; on linkers, the order of the positions; unused ones are H or OH. Bridge positions count the residues as written; N and C are the ends. Side chains are listed from the residue outwards. Ends that are not written are not given here. * marks the point of attachment. C20 diacid = O=C(O)CCCCCCCCCCCCCCCCCCC(=O)*; γGlu = O=C(O)[C@H](CCC(=O)[*:2])N[*:1]; AEEA = NCCOCCOCC(=O)O

B1: N^ε-[(4S)-4-carboxy-4-(19-carboxynonadecanoylamino)butanoyl]Lys[Arg1,Arg17,Pro21,Pro27,His35]-h-amylin (peptide)
peptide: K([γGlu-C20 diacid])RCNTATCATQRLANFLRHSSPNFGAIPSSTNVGSHTY-NH2
modifications: disulfide 3-8; N-terminus assumed
SMILES: CC[C@H](C)[C@H](NC(=O)[C@H](C)NC(=O)CNC(=O)[C@H](Cc1ccccc1)NC(=O)[C@H](CC(N)=O)NC(=O)[C@@H]1CCCN1C(=O)[C@H](CO)NC(=O)[C@H](CO)NC(=O)[C@H](Cc1c[nH]cn1)NC(=O)[C@H](CCCNC(=N)N)NC(=O)[C@H](CC(C)C)NC(=O)[C@H](Cc1ccccc1)NC(=O)[C@H](CC(N)=O)NC(=O)[C@H](C)NC(=O)[C@H](CC(C)C)NC(=O)[C@H](CCCNC(=N)N)NC(=O)[C@H](CCC(N)=O)NC(=O)[C@@H](NC(=O)[C@H](C)NC(=O)[C@@H]1CSSC[C@H](NC(=O)[C@H](CCCNC(=N)N)NC(=O)[C@@H](N)CCCCNC(=O)CC[C@H](NC(=O)CCCCCCCCCCCCCCCCCCC(=O)O)C(=O)O)C(=O)N[C@@H](CC(N)=O)C(=O)N[C@@H]([C@@H](C)O)C(=O)N[C@@H](C)C(=O)N[C@@H]([C@@H](C)O)C(=O)N1)[C@@H](C)O)C(=O)N1CCC[C@H]1C(=O)N[C@@H](CO)C(=O)N[C@@H](CO)C(=O)N[C@H](C(=O)N[C@@H](CC(N)=O)C(=O)N[C@H](C(=O)NCC(=O)N[C@@H](CO)C(=O)N[C@@H](Cc1c[nH]cn1)C(=O)N[C@H](C(=O)N[C@@H](Cc1ccc(O)cc1)C(N)=O)[C@@H](C)O)C(C)C)[C@@H](C)O
notes: analogue of human amylin, extended by Lys at the N-terminus; also called compound 44
B2: N^-1-[(4S)-4-carboxy-4-(19-carboxynonadecanoylamino)butanoyl]-Gly[Arg1,Arg17,Pro21,Pro27]-h-amylin (peptide)
peptide: {C20 diacid-γGlu}-GRCNTATCATQRLANFLRHSSPNFGAIPSSTNVGSNTY-NH2
modifications: disulfide 3-8
SMILES: CC[C@H](C)[C@H](NC(=O)[C@H](C)NC(=O)CNC(=O)[C@H](Cc1ccccc1)NC(=O)[C@H](CC(N)=O)NC(=O)[C@@H]1CCCN1C(=O)[C@H](CO)NC(=O)[C@H](CO)NC(=O)[C@H](Cc1c[nH]cn1)NC(=O)[C@H](CCCNC(=N)N)NC(=O)[C@H](CC(C)C)NC(=O)[C@H](Cc1ccccc1)NC(=O)[C@H](CC(N)=O)NC(=O)[C@H](C)NC(=O)[C@H](CC(C)C)NC(=O)[C@H](CCCNC(=N)N)NC(=O)[C@H](CCC(N)=O)NC(=O)[C@@H](NC(=O)[C@H](C)NC(=O)[C@@H]1CSSC[C@H](NC(=O)[C@H](CCCNC(=N)N)NC(=O)CNC(=O)CC[C@H](NC(=O)CCCCCCCCCCCCCCCCCCC(=O)O)C(=O)O)C(=O)N[C@@H](CC(N)=O)C(=O)N[C@@H]([C@@H](C)O)C(=O)N[C@@H](C)C(=O)N[C@@H]([C@@H](C)O)C(=O)N1)[C@@H](C)O)C(=O)N1CCC[C@H]1C(=O)N[C@@H](CO)C(=O)N[C@@H](CO)C(=O)N[C@H](C(=O)N[C@@H](CC(N)=O)C(=O)N[C@H](C(=O)NCC(=O)N[C@@H](CO)C(=O)N[C@@H](CC(N)=O)C(=O)N[C@H](C(=O)N[C@@H](Cc1ccc(O)cc1)C(N)=O)[C@@H](C)O)C(C)C)[C@@H](C)O
notes: analogue of human amylin, extended by Gly at the N-terminus; also called compound 46
B3: N^ε1-[2-[2-[2-[[(4S)-4-carboxy-4-(19-carboxynonadecanoylamino)butanoyl]amino]ethoxy]ethoxy]acetyl]-[Arg17,Pro21,Pro27]-h-amylin (peptide)
peptide: K([AEEA-γGlu-C20 diacid])CNTATCATQRLANFLRHSSPNFGAIPSSTNVGSNTY-NH2
modifications: disulfide 2-7; N-terminus assumed
SMILES: CC[C@H](C)[C@H](NC(=O)[C@H](C)NC(=O)CNC(=O)[C@H](Cc1ccccc1)NC(=O)[C@H](CC(N)=O)NC(=O)[C@@H]1CCCN1C(=O)[C@H](CO)NC(=O)[C@H](CO)NC(=O)[C@H](Cc1c[nH]cn1)NC(=O)[C@H](CCCNC(=N)N)NC(=O)[C@H](CC(C)C)NC(=O)[C@H](Cc1ccccc1)NC(=O)[C@H](CC(N)=O)NC(=O)[C@H](C)NC(=O)[C@H](CC(C)C)NC(=O)[C@H](CCCNC(=N)N)NC(=O)[C@H](CCC(N)=O)NC(=O)[C@@H](NC(=O)[C@H](C)NC(=O)[C@@H]1CSSC[C@H](NC(=O)[C@@H](N)CCCCNC(=O)COCCOCCNC(=O)CC[C@H](NC(=O)CCCCCCCCCCCCCCCCCCC(=O)O)C(=O)O)C(=O)N[C@@H](CC(N)=O)C(=O)N[C@@H]([C@@H](C)O)C(=O)N[C@@H](C)C(=O)N[C@@H]([C@@H](C)O)C(=O)N1)[C@@H](C)O)C(=O)N1CCC[C@H]1C(=O)N[C@@H](CO)C(=O)N[C@@H](CO)C(=O)N[C@H](C(=O)N[C@@H](CC(N)=O)C(=O)N[C@H](C(=O)NCC(=O)N[C@@H](CO)C(=O)N[C@@H](CC(N)=O)C(=O)N[C@H](C(=O)N[C@@H](Cc1ccc(O)cc1)C(N)=O)[C@@H](C)O)C(C)C)[C@@H](C)O
notes: analogue of human amylin; also called compound 41
B4: N^ε-[2-[2-[2-[[(4S)-4-carboxy-4-(19-carboxynonadecanoylamino)butanoyl]amino]ethoxy]ethoxy]acetyl]Lys[Arg1,Arg17,Pro21,Pro27,His35]-h-amylin (peptide)
peptide: K([AEEA-γGlu-C20 diacid])RCNTATCATQRLANFLRHSSPNFGAIPSSTNVGSHTY-NH2
modifications: disulfide 3-8; N-terminus assumed
SMILES: CC[C@H](C)[C@H](NC(=O)[C@H](C)NC(=O)CNC(=O)[C@H](Cc1ccccc1)NC(=O)[C@H](CC(N)=O)NC(=O)[C@@H]1CCCN1C(=O)[C@H](CO)NC(=O)[C@H](CO)NC(=O)[C@H](Cc1c[nH]cn1)NC(=O)[C@H](CCCNC(=N)N)NC(=O)[C@H](CC(C)C)NC(=O)[C@H](Cc1ccccc1)NC(=O)[C@H](CC(N)=O)NC(=O)[C@H](C)NC(=O)[C@H](CC(C)C)NC(=O)[C@H](CCCNC(=N)N)NC(=O)[C@H](CCC(N)=O)NC(=O)[C@@H](NC(=O)[C@H](C)NC(=O)[C@@H]1CSSC[C@H](NC(=O)[C@H](CCCNC(=N)N)NC(=O)[C@@H](N)CCCCNC(=O)COCCOCCNC(=O)CC[C@H](NC(=O)CCCCCCCCCCCCCCCCCCC(=O)O)C(=O)O)C(=O)N[C@@H](CC(N)=O)C(=O)N[C@@H]([C@@H](C)O)C(=O)N[C@@H](C)C(=O)N[C@@H]([C@@H](C)O)C(=O)N1)[C@@H](C)O)C(=O)N1CCC[C@H]1C(=O)N[C@@H](CO)C(=O)N[C@@H](CO)C(=O)N[C@H](C(=O)N[C@@H](CC(N)=O)C(=O)N[C@H](C(=O)NCC(=O)N[C@@H](CO)C(=O)N[C@@H](Cc1c[nH]cn1)C(=O)N[C@H](C(=O)N[C@@H](Cc1ccc(O)cc1)C(N)=O)[C@@H](C)O)C(C)C)[C@@H](C)O
notes: analogue of human amylin, extended by Lys at the N-terminus; also called compound 45
B5: N^ε1-[(4S)-4-carboxy-4-[[(4S)-4-carboxy-4-(19-carboxynonadecanoylamino)butanoyl]amino]butanoyl]-[Asp14,Arg17,Pro21,Pro27,Asp35]-h-amylin (peptide)
peptide: K([γGlu-γGlu-C20 diacid])CNTATCATQRLADFLRHSSPNFGAIPSSTNVGSDTY-NH2
modifications: disulfide 2-7; N-terminus assumed
SMILES: CC[C@H](C)[C@H](NC(=O)[C@H](C)NC(=O)CNC(=O)[C@H](Cc1ccccc1)NC(=O)[C@H](CC(N)=O)NC(=O)[C@@H]1CCCN1C(=O)[C@H](CO)NC(=O)[C@H](CO)NC(=O)[C@H](Cc1c[nH]cn1)NC(=O)[C@H](CCCNC(=N)N)NC(=O)[C@H](CC(C)C)NC(=O)[C@H](Cc1ccccc1)NC(=O)[C@H](CC(=O)O)NC(=O)[C@H](C)NC(=O)[C@H](CC(C)C)NC(=O)[C@H](CCCNC(=N)N)NC(=O)[C@H](CCC(N)=O)NC(=O)[C@@H](NC(=O)[C@H](C)NC(=O)[C@@H]1CSSC[C@H](NC(=O)[C@@H](N)CCCCNC(=O)CC[C@H](NC(=O)CC[C@H](NC(=O)CCCCCCCCCCCCCCCCCCC(=O)O)C(=O)O)C(=O)O)C(=O)N[C@@H](CC(N)=O)C(=O)N[C@@H]([C@@H](C)O)C(=O)N[C@@H](C)C(=O)N[C@@H]([C@@H](C)O)C(=O)N1)[C@@H](C)O)C(=O)N1CCC[C@H]1C(=O)N[C@@H](CO)C(=O)N[C@@H](CO)C(=O)N[C@H](C(=O)N[C@@H](CC(N)=O)C(=O)N[C@H](C(=O)NCC(=O)N[C@@H](CO)C(=O)N[C@@H](CC(=O)O)C(=O)N[C@H](C(=O)N[C@@H](Cc1ccc(O)cc1)C(N)=O)[C@@H](C)O)C(C)C)[C@@H](C)O
notes: analogue of human amylin; also called compound 2

target: T1, human calcitonin receptor (human, UniProt P30988 25-474); experiment: cell-based or functional assay
T1 sequence (looked up): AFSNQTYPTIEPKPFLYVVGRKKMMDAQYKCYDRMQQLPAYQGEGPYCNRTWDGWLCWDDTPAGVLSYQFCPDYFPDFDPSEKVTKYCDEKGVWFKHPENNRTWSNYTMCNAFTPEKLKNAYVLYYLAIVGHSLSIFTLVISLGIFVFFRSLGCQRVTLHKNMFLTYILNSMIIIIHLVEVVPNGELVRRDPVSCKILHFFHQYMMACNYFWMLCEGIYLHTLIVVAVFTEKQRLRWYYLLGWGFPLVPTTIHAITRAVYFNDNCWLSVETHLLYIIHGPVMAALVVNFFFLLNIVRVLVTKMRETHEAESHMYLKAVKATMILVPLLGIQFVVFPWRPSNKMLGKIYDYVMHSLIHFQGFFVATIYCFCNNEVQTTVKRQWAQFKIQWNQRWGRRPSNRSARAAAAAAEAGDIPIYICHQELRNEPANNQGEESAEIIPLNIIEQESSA

Point of comparison: B3, “hCTR funct. EC50” value 4.35 nM. Against it:
- B1 — within 1.5-fold, 4.75 nM
- B2 — 4.8-fold lower, 0.899 nM
- B4 — 2.3-fold higher, 10.1 nM
- B5 — within 1.5-fold, 3 nM
